Reference: patent publication US20110263454A1, “Methods of Identifying Functional Characteristics of Promoters, Transcription Modifying Proteins and Transcription Modulating Agents” (Salk Institute for Biological Studies, priority 2008, published 2011)

What was measured:
MCP-1 promoter = assay: NHR-promoter luciferase screen, MCP-1 promoter; type: cell-based; details: for Normalized Luc. act., normalized to control / Luc. act., normalized to lacZ: MCP-1 promoter reporter; for Normalized Luc. act., normalized to control: HR without or with its ligand, relative to control; for Luc. act., normalized to lacZ: hormone receptor (HR) without or with its ligand; for mMCP-1 promoter reporter activity: transcription factor +/- ligand, control = 1.00
Procedure: (§1) The use, feasibility, and reproducibility of the functional NHR-promoter screen in a 48-well format have been tested validated. Briefly, there were co-expressed 50 ng of each NHR/NHR homodimer or NHR/RXR heterodimer with 100 ng promoter/luciferase construct and 50 ng of LacZ (as a control for transfection efficiency) in CV-1 cells using Fugene HD (Roche) as a transfection reagent (alternatively or additionally, a CMV-YFP construct can be used as a transfection control). Each of the nuclear hormone receptors that were used in these experiments was cloned into a pcDNA3.1 vector and comprised a C-terminally linked V5H6 tag. Twenty-four hours after transfection, appropriate ligands were added, where applicable, (see Table 5 for various ligands and concentrations and after 48 hrs, samples were assayed for luciferase and LacZ activity. To measure for luciferase activity 15 ul of sample was added to 30 ul of luciferase buffer (20 mM tricine, 1.07 mM MgCarbonate, 2.67 mM MgSulfate, 0.1 mM Naz-EDTA, 5 mM DTT, 5 mM ATP, 0.15 mg/ml CoA, 0.5 mM Luciferin), mixed briefly, and run in a Perkin Elmer Victor 5 luminometer. Thus, the functional NHR-promoter screen was used to observe the transcriptional activity of 29 promoters from various physiological pathways including inflammation, lipid and sugar metabolism, cholesterol transport, xenobiotic metabolism, and circadian rhythm.
(§2) The promoters that facilitate transcription of the indicated gene products that were tested using the protocols described herein are listed in the first row of the table. The nuclear hormone receptors and, where applicable, ligands that were assayed for their transcriptional effects on the promoters are listed in the first column of the table. The data represent the luciferase activity of each sample normalized to both the lacZ activity of that sample and to a control, e.g., no NHR or ligand, as customary in the art. As described previously, these normalizations allow the transcriptional activity of each reporter cell to be compared to other samples.
(§3) Tables 7-40 show the transcriptional effects of the hormone receptors, and, where applicable, ligands (orphan receptors are screened without ligand), on each individual promoter. […] The control data of each table are shown in their last rows.

hCYP3A4 promoter = assay: NHR-promoter luciferase screen, hCYP3A4 promoter; type: cell-based, human; details: for Luc. act., normalized to lacZ / Normalized Luc. act., normalized to control: CYP3A4 promoter, HR/ligand component; for hCYP3A4 promoter reporter activity: transcription factor +/- ligand, control = 1.00
Procedure: Briefly, there were co-expressed 50 ng of each NHR/NHR homodimer or NHR/RXR heterodimer with 100 ng promoter/luciferase construct and 50 ng of LacZ (as a control for transfection efficiency) in CV-1 cells using Fugene HD (Roche) as a transfection reagent (alternatively or additionally, a CMV-YFP construct can be used as a transfection control). Each of the nuclear hormone receptors that were used in these experiments was cloned into a pcDNA3.1 vector and comprised a C-terminally linked V5H6 tag.
as §2, §3

mADRP promoter = assay: NHR-promoter luciferase screen, mADRP promoter; type: cell-based, mouse; details: for Luc. act., normalized to lacZ / Normalized Luc. act., normalized to control: ADRP promoter, HR/ligand component; for mADRP promoter reporter activity: transcription factor +/- ligand, control = 1.00
Procedure: as §1, §2, §3

mPer1 promoter = assay: NHR-promoter luciferase screen, mPer1 promoter; type: cell-based, mouse; details: for Luc. act., normalized to lacZ / Normalized Luc. act., normalized to control: Per1 promoter reporter, co-transfected HR, with or without its ligand; for Normalized Luc. act., normalized to control: relative to control; for luciferase activity normalized to lacZ activity and to a control, mPer1: mPer1 promoter-luciferase, CV-1 cells, NHR +/- ligand, control = 1.00
Procedure: as §1, §2, §3

mABCA1 promoter = assay: NHR-promoter luciferase screen, mABCA1 promoter; type: cell-based, mouse; details: for Luc. act., normalized to lacZ / Normalized Luc. act., normalized to control: ABCA1 promoter, hormone receptor with or without its ligand; for Normalized Luc. act., normalized to control: relative to control; for mABCA1 promoter reporter activity: transcription factor +/- ligand, control = 1.00
Procedure: as §1, §2, §3

mUCP3 promoter = assay: NHR-promoter luciferase screen, mUCP3 promoter; type: cell-based, mouse; details: for Normalized Luc. act., normalized to control / Luc. act., normalized to lacZ: mUCP3 promoter reporter; for Normalized Luc. act., normalized to control: HR without or with its ligand, relative to control; for Luc. act., normalized to lacZ: hormone receptor (HR) without or with its ligand; for mUCP3 promoter reporter activity: transcription factor +/- ligand, control = 1.00
Procedure: as §1, §2, §3

Molecule | Normalized Luc. act., normalized to control (MCP-1 promoter) | Luc. act., normalized to lacZ (MCP-1 promoter) | mMCP-1 promoter reporter activity (MCP-1 promoter) | Luc. act., normalized to lacZ (hCYP3A4 promoter) | Normalized Luc. act., normalized to control (hCYP3A4 promoter) | hCYP3A4 promoter reporter activity (hCYP3A4 promoter) | Luc. act., normalized to lacZ (mADRP promoter) | Normalized Luc. act., normalized to control (mADRP promoter) | mADRP promoter reporter activity (mADRP promoter) | Luc. act., normalized to lacZ (mPer1 promoter) | Normalized Luc. act., normalized to control (mPer1 promoter) | luciferase activity normalized to lacZ activity and to a control, mPer1 (mPer1 promoter) | Luc. act., normalized to lacZ (mABCA1 promoter) | Normalized Luc. act., normalized to control (mABCA1 promoter) | mABCA1 promoter reporter activity (mABCA1 promoter) | Normalized Luc. act., normalized to control (mUCP3 promoter) | Luc. act., normalized to lacZ (mUCP3 promoter) | mUCP3 promoter reporter activity (mUCP3 promoter)
RVRa: Rev-Erb α (NR1D1), cDNA driver (protein, UniProt P20393 1-614, looked up) Nuclear receptor subfamily 1 …: MTTLDSNNNTGGVITYIGSSGSSPSRTSPESLYSDNSNGSFQSLTQGCPTYFPPSPTGSLTQDPARSFGSIPPSLSDDGSPSSSSSSSSSSSSFYNGSPPGSLQVAMEDSSRVSPSKSTSNITKLNGMVLLCKVCGDVASGFHYGVHACEGCKGFFRRSIQQNIQYKRCLKNENCSIVRINRNRCQQCRFKKCLSVGMSRDAVRFGRIPKREKQRMLAEMQSAMNLANNQLSSQCPLETSPTQHPTPGPMGPSPPPAPVPSPLVGFSQFPQQLTPPRSPSPEPTVEDVISQVARAHREIFTYAHDKLGSSPGNFNANHASGSPPATTPHRWENQGCPPAPNDNNTLAAQRHNEALNGLRQAPSSYPPTWPPGPAHHSCHQSNSNGHRLCPTHVYAAPEGKAPANSPRQGNSKNVLLACPMNMYPHGRSGRTVQEIWEDFSMSFTPAVREVVEFAKHIPGFRDLSQHDQVTLLKAGTFEVLMVRFASLFNVKDQTVMFLSRTTYSLQELGAMGMGDLLSAMFDFSEKLNSLALTEEELGLFTAVVLVSADRSGMENSASVEQLQETLLRALRALVLKNRPLETSRFTKLLLKLPDLRTLNNMHSEKLLSFRVDAQ | 1.4 | 149.4 | 1.40 | 2.2 | 0.5 | 0.50 | 522.2 | 1.0 | 1.05 | 98.6 | 0.7 | 0.68 | 46.3 | 8.3 | 8.25 | 1.2 | 0.8 | 1.24
RARa: Retinoic acid receptor α (NR1B1), nuclear hormone receptor cDNA driver (protein, UniProt P10276 1-462, looked up) Retinoic acid receptor alpha: MASNSSSCPTPGGGHLNGYPVPPYAFFFPPMLGGLSPPGALTTLQHQLPVSGYSTPSPATIETQSSSSEEIVPSPPSPPPLPRIYKPCFVCQDKSSGYHYGVSACEGCKGFFRRSIQKNMVYTCHRDKNCIINKVTRNRCQYCRLQKCFEVGMSKESVRNDRNKKKKEVPKPECSESYTLTPEVGELIEKVRKAHQETFPALCQLGKYTTNNSSEQRVSLDIDLWDKFSELSTKCIIKTVEFAKQLPGFTTLTIADQITLLKAACLDILILRICTRYTPEQDTMTFSDGLTLNRTQMHNAGFGPLTDLVFAFANQLLPLEMDDAETGLLSAICLICGDRQDLEQPDRVDMLQEPLLEALKVYVRKRRPSRPHMFPKMLMKITDLRSISAKGAERVITLKMEIPGSMPPLIQEMLENSEGLDTLSGQPGGGGRDGGGLAPPPGSCSPSLSPSSNRSSPATHSP | 1.7 | 182.3 | 1.70 | 4.2 | 0.9 | 0.94 | 628.8 | 1.3 | 1.26 | 85.4 | 0.6 | 0.59 | 24.6 | 4.4 | 4.39 | 1.8 | 1.2 | 1.76
RVRb: Rev-Erb β (NR1D2, alternative name RVR), cDNA driver (protein, UniProt Q14995 1-579, looked up) Nuclear receptor subfamily 1 …: MEVNAGGVIAYISSSSSASSPASCHSEGSENSFQSSSSSVPSSPNSSNSDTNGNPKNGDLANIEGILKNDRIDCSMKTSKSSAPGMTKSHSGVTKFSGMVLLCKVCGDVASGFHYGVHACEGCKGFFRRSIQQNIQYKKCLKNENCSIMRMNRNRCQQCRFKKCLSVGMSRDAVRFGRIPKREKQRMLIEMQSAMKTMMNSQFSGHLQNDTLVEHHEQTALPAQEQLRPKPQLEQENIKSSSPPSSDFAKEEVIGMVTRAHKDTFMYNQEQQENSAESMQPQRGERIPKNMEQYNLNHDHCGNGLSSHFPCSESQQHLNGQFKGRNIMHYPNGHAICIANGHCMNFSNAYTQRVCDRVPIDGFSQNENKNSYLCNTGGRMHLVCPMSKSPYVDPHKSGHEIWEEFSMSFTPAVKEVVEFAKRIPGFRDLSQHDQVNLLKAGTFEVLMVRFASLFDAKERTVTFLSGKKYSVDDLHSMGAGDLLNSMFEFSEKLNALQLSDEEMSLFTAVVLVSADRSGIENVNSVEALQETLIRALRTLIMKNHPNEASIFTKLLLKLPDLRSLNNMHSEELLAFKVHP | 1.6 | 170.4 | 1.59 | 4.5 | 1.0 | 1.01 | 353.2 | 0.7 | 0.71 | 118.3 | 0.8 | 0.82 | 36.8 | 6.6 | 6.55 | 1.9 | 1.3 | 1.91
RARb: Retinoic acid receptor β (NR1B2), nuclear hormone receptor cDNA driver (protein, UniProt P10826 1-455, looked up) Retinoic acid receptor beta: MTTSGHACPVPAVNGHMTHYPATPYPLLFPPVIGGLSLPPLHGLHGHPPPSGCSTPSPATIETQSTSSEELVPSPPSPLPPPRVYKPCFVCQDKSSGYHYGVSACEGCKGFFRRSIQKNMIYTCHRDKNCVINKVTRNRCQYCRLQKCFEVGMSKESVRNDRNKKKKETSKQECTESYEMTAELDDLTEKIRKAHQETFPSLCQLGKYTTNSSADHRVRLDLGLWDKFSELATKCIIKIVEFAKRLPGFTGLTIADQITLLKAACLDILILRICTRYTPEQDTMTFSDGLTLNRTQMHNAGFGPLTDLVFTFANQLLPLEMDDTETGLLSAICLICGDRQDLEEPTKVDKLQEPLLEALKIYIRKRRPSKPHMFPKILMKITDLRSISAKGAERVITLKMEIPGSMPPLIQEMLENSEGHEPLTPSSSGNTAEHSPSISPSSVENSGVSQSPLVQ | 1.8 | 197.0 | 1.84 | 4.6 | 1.0 | 1.03 | 799.4 | 1.6 | 1.61 | 89.3 | 0.6 | 0.62 | 36.8 | 6.6 | 6.55 | 2.1 | 1.4 | 2.08
